The values below are quoted from earlier work in article PMC9200754.

As a reminder, the Kd is a measure of binding affinity in units of concentration.

One data set has as its target p65 (Homo sapiens) (UniProt Q04206). The settings on record: cited from earlier work.
Another data set deals with p50 (Homo sapiens) (UniProt P19838). The settings on record: cited from earlier work.

UniProt Q04206, sequence (Q04206 whole entry): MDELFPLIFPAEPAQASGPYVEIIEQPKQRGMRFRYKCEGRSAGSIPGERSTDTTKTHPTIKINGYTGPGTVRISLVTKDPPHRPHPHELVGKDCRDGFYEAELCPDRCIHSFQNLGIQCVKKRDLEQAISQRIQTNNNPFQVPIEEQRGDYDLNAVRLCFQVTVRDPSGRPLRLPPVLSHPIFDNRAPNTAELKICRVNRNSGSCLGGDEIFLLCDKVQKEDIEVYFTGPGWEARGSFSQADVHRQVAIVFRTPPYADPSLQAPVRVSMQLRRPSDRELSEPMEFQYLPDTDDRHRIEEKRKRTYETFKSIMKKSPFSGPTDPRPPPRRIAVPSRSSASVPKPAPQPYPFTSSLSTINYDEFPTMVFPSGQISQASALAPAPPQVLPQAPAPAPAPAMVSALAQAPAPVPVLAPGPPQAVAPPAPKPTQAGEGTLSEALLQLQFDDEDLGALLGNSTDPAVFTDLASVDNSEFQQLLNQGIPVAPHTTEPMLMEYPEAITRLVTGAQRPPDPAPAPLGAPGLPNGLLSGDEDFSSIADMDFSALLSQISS

As for p50 (from UniProt P19838), the dissociation constant (Kd) is 10 nM in the data set with p65 (Homo sapiens) and 30 nM with p50 (Homo sapiens).
